# According to PMC12051055, “Spectroscopy and crystallography define carotenoid oxygenases as a new subclass of mononuclear non-heme Fe^II enzymes” (The Journal of Biological Chemistry, 2025):
# B1: CAO1 (Neurospora crassa carotenoid oxygenase 1) (Neurospora crassa OR74A) (protein)
# chain: MAEYVFSDAPKDSHGNGVKDAVPGKQPEELPPAPRYFQGENTAGFMRPVRFEGDITNLEVVGEIPKSIEGTFYRVMPEPHLPSFIPNDPWFNGDGNISGFYFKDGHVDLKQRYVRTEKFVREAEARRSLLGKYRNRYTDLVEFKIRSTANTNIVYWRGQLLALKEDSPPYAMDPETLETFGVYDFDGQLPSLTFTAHPKFDPVTREMVCFGYEAKGDGTRDICYYSFGPDGKIAETVWLVSPVCGMIHDFAVTENFVIFPIIPLVCDVERMKQGGDHWQWDYSIPMYIGVLPRRGAQGSDVKWFEAPHGFAGHVANAFEDDKGHIQLQMAYAKDNVFFWWPDANGKGPRPGEVEAHFANFVLDYQSDKLPLAEPTYLVDDDMEFPRIDDRVATRKHKHTFFCIFDRKPGVTDFEFVMPRAGGGAPMSNGLAHLNHETGDIQRYLPGPRKLTGECIFIPRNSEAAEGDGYVMVLLANYEDMCSELAVLDTKDLTNEVALIKLPVRLRPGLHGNWVDKSDVDGHPAPL
# Substrate: CC=Cc1ccc(O)c(OC)c1
# Assay: steady-state kinetics of cleavage to vanillin by purified enzyme (apparent Km)
# Type: biochemical, Neurospora crassa
# Settings: Fe(II)
# Excerpt: steady-state kinetics of cleavage to vanillin by purified enzyme (apparent Km) on CAO1 (Neurospora crassa carotenoid oxygenase 1) | wildtype and T151V steady-state kinetics toward isoeugenol
protein,measurement,value
B1,Km,86.26 ± 13.49 µM
